In IntAct's records for PubMed 24656813:

B1: Telomere length regulation protein TEL2 homolog (Homo sapiens), Q9Y4R8 (parent)
chain: MEPAPSEVRLAVREAIHALSSSEDGGHIFCTLESLKRYLGEMEPPALPREKEEFASAHFSPVLRCLASRLSPAWLELLPHGRLEELWASFFLEGPADQAFLVLMETIEGAAGPSFRLMKMARLLARFLREGRLAVLMEAQCRQQTQPGFILLRETLLGKVVALPDHLGNRLQQENLAEFFPQNYFRLLGEEVVRVLQAVVDSLQGGLDSSVSFVSQVLGKACVHGRQQEILGVLVPRLAALTQGSYLHQRVCWRLVEQVPDRAMEAVLTGLVEAALGPEVLSRLLGNLVVKNKKAQFVMTQKLLFLQSRLTTPMLQSLLGHLAMDSQRRPLLLQVLKELLETWGSSSAIRHTPLPQQRHVSKAVLICLAQLGEPELRDSRDELLASMMAGVKCRLDSSLPPVRRLGMIVAEVVSARIHPEGPPLKFQYEEDELSLELLALASPQPAGDGASEAGTSLVPATAEPPAETPAEIVDGGVPQAQLAGSDSDLDSDDEFVPYDMSGDRELKSSKAPAYVRDCVEALTTSEDIERWEAALRALEGLVYRSPTATREVSVELAKVLLHLEEKTCVVGFAGLRQRALVAVTVTDPAPVADYLTSQFYALNYSLRQRMDILDVLTLAAQELSRPGCLGRTPQPGSPSPNTPCLPEAAVSQPGSAVASDWRVVVEERIRSKTQRLSKGGPRQGPAGSPSRFNSVAGHFFFPLLQRFDRPLVTFDLLGEDQLVLGRLAHTLGALMCLAVNTTVAVAMGKALLEFVWALRFHIDAYVRQGLLSAVSSVLLSLPAARLLEDLMDELLEARSWLADVAEKDPDEDCRTLALRALLLLQRLKNRLLPPASP

Variants of: B1
Conditions: with pihd1_human PIH1D1, Q9NWS0
pihd1_human PIH1D1, Q9NWS0, sequence (Q9NWS0 whole entry): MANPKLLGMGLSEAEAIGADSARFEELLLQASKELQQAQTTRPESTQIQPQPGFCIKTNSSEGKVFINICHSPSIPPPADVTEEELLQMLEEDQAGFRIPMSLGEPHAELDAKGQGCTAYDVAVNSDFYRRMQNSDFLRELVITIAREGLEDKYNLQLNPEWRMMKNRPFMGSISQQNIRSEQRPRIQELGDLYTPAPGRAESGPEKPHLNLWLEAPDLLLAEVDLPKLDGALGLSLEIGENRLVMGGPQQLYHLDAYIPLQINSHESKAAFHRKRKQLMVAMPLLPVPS

| effect of a mutation on the interaction | Variant |
| --- | --- |
| disrupting interaction strength | D492A;D493A |

Variants of: B1
Conditions: with pihd1_human PIH1D1, Q9NWS0
Remark: another data set of the same source

| effect of a mutation on the interaction | Variant |
| --- | --- |
| disrupting interaction strength | D492A |
| disrupting interaction strength | D493A |
| disrupting interaction strength | D490A |
